US20100035945A1, “SMALL MOLECULE INHIBITORS OF BACTERIAL DAM DNA METHYLTRANSFERASES” (priority 2004, published 2010)
“Also recorded” adds a separate entry of the source. Read-outs that look alike come from different tables or passages of the source.

Tests used:
[1] = target: T1, EcoDam DNA adenine methyltransferase (Escherichia coli, UniProt P0AEE8 SEQ:1-274); settings: 2-aminopurine replacing orphan Thy; AdoHcy, Thy flipping
[2] = target: EcoDam K9A K9A (Escherichia coli) (UniProt P0AEE8); test: SPR; settings: data not shown
[3] = target: EcoDam R124A R124A (Escherichia coli) (UniProt P0AEE8); test: SPR
EPEC [4] = assay type: cell-based, enteropathogenic E. coli (EPEC); settings: 20 μM compound, 3T3 cells infected with EPEC for 6 hrs, FITC-phalloidin/DAPI
Source text: Cell and animal models for pathogenic E. coli infection: Enteropathogenic E. coli (EPEC), which is closely related to enterohemorrhagic E. coli O157:H7 (EHEC), and the closely related mouse pathogen Citrobacter rodentium all cause attaching and effacing (A/E) lesions, characterized by flattening of intestinal microvilli, adherence of the bacteria to epithelial cells, and reorganization of the host actin cytoskeleton, which result in the formation of an actin-filled membrane protrusion or “pedestal” beneath each bacterium (Goosney et al., 2000; Knutton et al., 1989). Pedestal formation is readily detected on cultured fibroblasts (see FIG. 30) exposed to EPEC, and then stained with antibodies that recognized outer membrane proteins in the bacterium (green in FIG. 30) or DAPI, which recognizes bacterial and cellular DNA (blue in FIG. 30), together with phalloidin to recognize actin (red in […]). Pedestals are seen as intense actin staining directly opposed to the bacterium.
(§1) To determine whether formation of actin pedestals by EPEC could be used to screen for drugs which inhibit virulence, we tested each of the 82 compounds. 3T3 cells were plated in 96 well optical dishes. In this “proof of principle” experiment, each of the 82 compounds was added to a well at 20 μM, and cells were infected with EPEC for 6 hrs. The optical density (OD600) of the supernatant was assessed to estimate effects on bacterial growth, and the cells were fixed and stained with DAPI to recognize bacteria (and cell nuclei), and FITC-phalloidin to recognize filamentous actin. Inhibition of actin pedestals is readily identifiable as the loss of intense actin staining (Kalman et al., 1999; Swimm et al., 2004a). The plate was then scanned visually on an inverted Zeiss 200M fluorescence microscope with a 20× objective. All the wells on the dish were examined with 5 minutes (a high throughput format). At low power, actin pedestals are seen as intense fluorescence apposed to groups of bacteria (see FIG. 31B, arrow).

EPEC [5] = test: bacterial growth by OD600 of supernatant / growth curves; assay type: cell-based, enteropathogenic E. coli (EPEC); settings: 20 μM compound, listed as G6
Method: as §1

3T3 cells = settings: 20 μM compound
Method: as §1

Dam = Dam (Escherichia coli, UniProt P0AEE8); settings: compound concentration 200 μM; preliminary results, microplate assay
[6] = target: T2, T4Dam DNA adenine methyltransferase (Enterobacteria phage T4, UniProt P04392 SEQ:1-259); test: structure; AdoHcy; nonspecific mode, not at GATC; 3.1 A
[7] = target: T2, T4Dam DNA adenine methyltransferase; test: structure; AdoHcy; PDB 1YF3; nonspecific and 1/4-site; settings: one-base 5' overhangs
[8] = target: T2, T4Dam DNA adenine methyltransferase; test: structure; sinefungin; PDB 1YFL; full site with flipped Ade
[9] = target: T1, EcoDam DNA adenine methyltransferase; test: structure; AdoHcy cognate complex 1.89 A; also sinefungin non-canonical joint complex 1.99 A; settings: tags: His tag
Method: His Tag-EcoDam is expressed in HMS174(DE3) cells and purified using Ni²⁺-affinity, UnoS, and S75 Sepharose sizing columns. A 0.5-liter induced culture yields approximately 7 mg purified His Tag-EcoDam. In the last purification step and during concentration, cofactor analog AdoHcy or sinefungin is added is added to the protein at approximately 2:1 molar ratio. Concentrated binary complexes are mixed with oligonucleotide duplex (synthesized by New England Biolabs, Inc) at a protein to DNA ratio of about 2:1 and allowed to stand on ice for at least two hours before crystallization. Final protein concentration for crystallization is about 15 mg/mL. In hanging drop crystallization trials with AdoHcy, the ternary complex crystals appeared under low salt conditions of 100 mM KCl, 10 mM MgSO₄, 5-15% PEG400, and 100 mM buffer (MES or HEPES) pH 6.6-7.4 (the cognate crystal form in Table 4).
Structural determination of the cognate ternary complex proceeded by molecular replacement with the program REPLACE (Tong and Rossmann, 1997) using protein coordinates of a DpnM monomer structure (PDB 2DPM) (Tran et al., 1998). […] Structure of the non-cognate ternary complex was determined using a protein monomer from the refined cognate complex structure as a search model.

In the case of GATC with 2AP at orphan Thy, the binding signal (fold fluorescence increase) [1] is reported as 6.

SPR GATC oligonucleotide duplex was tested, and the binding signal (% of wild type binding) [2] was 70 and the binding signal (fold reduction vs wild type) [3] was 10.

For `O=C1Oc2ccccc2C(=O)/C1=C/Nc1nc(-c2ccc(O)c(O)c2)cs1` [Compound 78], the actin pedestal formation (EPEC [4]) was “inhibit actin pedestal formation”, the actin pedestal formation (EPEC [4]; listed as G6) was “appeared to inhibit actin pedestals; also recorded: No actin pedestals are observed” and the actin pedestal formation (EPEC [4]; listed as NCI 659390) was “inhibit actin pedestal formation”. For the same molecule, the “effect on bacterial growth (OD600)” value (EPEC [5]) was “did not affect bacterial growth; also recorded: no effect on bacterial growth”, the “gross cytopathological effects on 3T3 cells” value (3T3 cells) was “no gross cytopathological effects” and the Factor of inhibition (Dam) was 5.

B1: 12-mer duplex I (dsDNA)
DNA 1: ACAGGATCCTGT
DNA 2: ACAGGATCCTGT
B1: binds [6].

B2: 13-mer duplex II (dsDNA)
DNA 1: TGTCAGATCATGG
DNA 2: ACCATGATCTGAC
B2: binds [7].

B3: 16-mer duplex (dsDNA)
DNA 1: TCACAGGATCCTGTGA
DNA 2: TCACAGGATCCTGTGA
B3: binds [8].

B4: EcoDam 12-mer (dsDNA)
DNA 1: TCTAGATCTAGA
DNA 2: TCTAGATCTAGA
B4: binds [9].
